Measurements: patent publication US20220119450A1 (UNIVERSITY OF TARTU, published 2022)
No end group written: not given here.

Assays:
[1] = target: T1, recombinant His-tagged Neuropilin-1 b1b2 domain (UniProt O14786 273-586, limits assumed); assay: T7 phage binding to recombinant NRP-1 b1b2
T1 construct: domain: b1b2; also called NRP-1; NRP1
T1 sequence (looked up): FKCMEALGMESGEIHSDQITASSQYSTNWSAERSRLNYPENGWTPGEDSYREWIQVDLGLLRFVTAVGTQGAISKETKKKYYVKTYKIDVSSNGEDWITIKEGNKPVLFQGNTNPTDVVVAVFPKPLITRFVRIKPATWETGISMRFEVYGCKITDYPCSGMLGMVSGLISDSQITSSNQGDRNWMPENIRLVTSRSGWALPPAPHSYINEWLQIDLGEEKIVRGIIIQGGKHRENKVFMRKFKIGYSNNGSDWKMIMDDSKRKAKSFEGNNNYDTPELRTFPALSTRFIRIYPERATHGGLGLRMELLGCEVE

[2] = target: T2, recombinant His-tagged fibronectin extra domain B (FN-EDB); assay: T7 phage binding to recombinant protein
T2 construct: 112 amino acids, expressed in E. coli from pET28a+ with N-terminal His-tag; also called fibronectin EDB-domain

[3] = target: T3, recombinant His-tagged tenascin-C C domain (TNC-C); assay: T7 phage binding to recombinant protein
T3 construct: 112 amino acids, expressed in E. coli from pET28a+ with N-terminal His-tag
T3 chain: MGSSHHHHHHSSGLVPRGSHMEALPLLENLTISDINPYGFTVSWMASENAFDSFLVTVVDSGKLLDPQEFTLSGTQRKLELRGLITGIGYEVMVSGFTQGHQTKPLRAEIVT

[4] = target: T2, recombinant His-tagged fibronectin …; assay: binding specificity, T7 peptide phage
Method: (§1) To identify bispecific peptides that interact with both TNC-C and FN-EDB, cross screens were performed on both targets. During the first round of selection, microtiter plates coated with 20 μg/ml recombinant purified TNC-C were blocked with PBS containing 1% bovine serum albumin (BSA), followed by incubation with 5×10⁸ pfu of phages in PBS at 4° C. overnight, by washes to remove background, and by phage rescue and amplification in BLT5403 strain of E. coli (Novagen, EMD Biosciences, MA, USA) (Teesalu et al., Methods Enzymol. 503:35-56 (2012)). The following rounds of biopanning were carried on Ni-NTA Magnetic Agarose Beads (QIAGEN, Hilden, Germany) coated with hexahistidine-tagged FN-EDB (3 μg/μl beads) at room temperature. After 5 rounds of selection, a set of random clones was sequenced, and individual peptide-phage clones and control (G7 peptide-displaying or insertless) phages were incubated with FN-EDB and TNC-C-coated magnetic beads. RPARPAR phage (SEQ ID NO:5) and His-tagged NRP-1 b1b2 domain were used as positive control (Teesalu et al., Proc. Natl. Acad. Sci. U.S.A 106:16157-62 (2009)). To address the specificity of the peptide phage binding to the FN-EDB and TNC-C, the protein-coated beads were pre-incubated with 20 μg/ml blocking rabbit polyclonal antibodies.
(§2) Immobilized FAM-PL1 was probed with recombinant His-tagged EDB and TNC-C (or control BSA), followed by sequential incubation with rabbit anti-His-tag primary antibody, secondary goat anti-rabbit HRP antibody and a chromogenic peroxidase reaction.

[5] = target: T3, recombinant His-tagged tenascin-C C …; assay: binding specificity, T7 peptide phage
Method: as §1, §2

[6] = target: T1, recombinant His-tagged Neuropilin-1 …; assay: T7 phage binding to protein-coated magnetic beads

How did the “fold more than heptaglycine control phage” value [1] turn out when AGRGRLVR (also: displayed on T7 phage, fusion site not given here, also called PL3 phage; PL-3 phage) [PL3 peptide displayed on T7 phage (AGRGRLVR)] was run?
The value was about 200 fold.

Does AGRGRLVR (also: displayed on T7 phage, fusion site not given here, also called PL3 phage; PL-3 phage) [PL3 peptide displayed on T7 phage (AGRGRLVR)] bind [2]?
Result: no binding

Does AGRGRLVR (also: displayed on T7 phage, fusion site not given here, also called PL3 phage; PL-3 phage) [PL3 peptide displayed on T7 phage (AGRGRLVR)] bind [3]?
Result: binds

What does the source list for PPRRGLIKLKTS (not fully specified (N-terminus); also: displayed on T7 phage capsid protein, also called PL1 phage) [PL1 peptide displayed on T7 phage (PPRRGLIKLKTS)]?
binding result [4]: binds; binding result [5]: binds; binding result [6]: no binding
